Laboratory results published in the supplement of paper PMC10567573.

B1: ZNF263 (parent)
chain: HLTRHQRTHTGEKPYKCTLCGENF

Variants of: B1
Test: protein stability index of a GFP-peptide fusion (GPS, HEK-293T) (PSI 1-6); higher = more stable
Conditions: c terminus: a fixed tail appended
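Further: lentivirally expressed fusions sorted by FACS into six bins by GFP to DsRed ratio, PSI derived from sequencing read proportions per bin multiplied by bin number.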

In order of falling protein stability index:
1. HLTRHQRTHTGEKPYKCTLCGEND [F24D]  4.62
2. HLTRHQRTHTGEKPCKCTLCGENF [Y15C]  4.52
3. HLTRHQRTHTGEKPYKCTLCGENS [F24S]  4.49
4. HLTRHQRTHTGEKPDKCTLCGENF [Y15D]  4.21
5. HLTRHQRTHTGEKPYKCTLEGENF [C20E]  4.11
6. HLTRHQRTHTGEKPYKCTLCGENC [F24C]  4.06
7. HLTRHQETHTGEKPYKCTLCGENF [R7E]  3.98
8. HLTRHQRTHTGEKPYKCTLTGENF [C20T]  3.93
9. HLTRCQRTHTGEKPYKCTLCGENF [H5C]  3.92
10. HLTRHQRTHTGEKPYKCELCGENF [T18E]  3.78
11. HLTPHQRTHTGEKPYKCTLCGENF [R4P]  3.76
12. HLTRHQRTHTGEKPYACTLCGENF [K16A]  3.72
13. HLTRHQRTHTGEKPYKCTLCGENN [F24N]  3.7
14. HLTRHQRTHTGEKPYKCTLDGENF [C20D]  3.69
15. HLTRHQRTHTGEKPEKCTLCGENF [Y15E]  3.69
16. HLTRHQRTHTGEKPYKCTNCGENF [L19N]  3.68
17. HLTRHQRTHTGEKPYKCTTCGENF [L19T]  3.64
18. HLTRHQTTHTGEKPYKCTLCGENF [R7T]  3.6
19. HLTRHQRTHTGAKPYKCTLCGENF [E12A]  3.53
20. HLTRHQRTHTGEKPYKCTLCGENV [F24V]  3.47
21. HLTRHQRTHTGEKPYKCTLCGENL [F24L]  3.44
22. HLTRHQRTHTGEKPQKCTLCGENF [Y15Q]  3.44
23. HLTRHQGTHTGEKPYKCTLCGENF [R7G]  3.39
24. HLTSHQRTHTGEKPYKCTLCGENF [R4S]  3.37
25. HLTRHQSTHTGEKPYKCTLCGENF [R7S]  3.36
26. HLTVHQRTHTGEKPYKCTLCGENF [R4V]  3.35
27. HLTQHQRTHTGEKPYKCTLCGENF [R4Q]  3.32
28. HLTRHQRTHTGEKPGKCTLCGENF [Y15G]  3.29
29. HLTRHQRTHTGEKPHKCTLCGENF [Y15H]  3.24
30. HLTRHQRTHTGEKPYKCTACGENF [L19A]  3.23
31. HLTRHQRTHTGEKPAKCTLCGENF [Y15A]  3.23
32. HLTRHQRTHTGKKPYKCTLCGENF [E12K]  3.2
33. HLTRHQRTHTGEKPYKCTSCGENF [L19S]  3.14
34. HLTRHQRTHTGEKPYKCTLCGENP [F24P]  3.14
35. HLTRHQRTHTGEKPYKCTLKGENF [C20K]  3.12
36. HLTRHQRTHTGEKPYKCTLCGENK [F24K]  3.12
37. SLTRHQRTHTGEKPYKCTLCGENF [H1S]  3.12
38. HLTRQQRTHTGEKPYKCTLCGENF [H5Q]  3.08
39. HLTRHQRTHTGEKPYKCTLVGENF [C20V]  3.07
40. HLTRHQRTHTGEKPYKCTRCGENF [L19R]  3.03
41. HLTRHQRTHTGEKPYKCTLCGENI [F24I]  3.02
42. HLTRHQRTHTGEKPTKCTLCGENF [Y15T]  3
43. HLTRHQRTHTGEKPYKCKLCGENF [T18K]  2.98
44. HLTRHQKTHTGEKPYKCTLCGENF [R7K]  2.97
45. DLTRHQRTHTGEKPYKCTLCGENF [H1D]  2.97
46. HLTRHQVTHTGEKPYKCTLCGENF [R7V]  2.96
47. HLTRHQQTHTGEKPYKCTLCGENF [R7Q]  2.96
48. HLTREQRTHTGEKPYKCTLCGENF [H5E]  2.96
49. HLTRHQRTHTGEKPYKCTHCGENF [L19H]  2.94
50. HLTRHQRTHTGEKPYHCTLCGENF [K16H]  2.91
51. HLTRHQRTHTGEKPYTCTLCGENF [K16T]  2.9
52. HLTRHQRTHTGEKPYKCTLCGENY [F24Y]  2.9
53. HLTRHQYTHTGEKPYKCTLCGENF [R7Y]  2.9
54. HLTRHQRTHTGEKPYKCTLCGENQ [F24Q]  2.88
55. HLTRHQRTHTGEKPIKCTLCGENF [Y15I]  2.85
56. HLTRHQRTHTGYKPYKCTLCGENF [E12Y]  2.84
57. HLTRHQRTHTGEKPYKCSLCGENF [T18S]  2.84
58. HLTRHQRTHTGEKPYCCTLCGENF [K16C]  2.83
59. HLTRHQRTHTGEKPYKCTMCGENF [L19M]  2.83
60. HLTRHQRTHTGEKPYNCTLCGENF [K16N]  2.82
61. HLTRHQRTHTGEKPYKCNLCGENF [T18N]  2.81
62. HLTRHQRTHTGPKPYKCTLCGENF [E12P]  2.8
63. HLTRHQRTHTGEKPYKCTLYGENF [C20Y]  2.77
64. KLTRHQRTHTGEKPYKCTLCGENF [H1K]  2.74
65. HLTRHQRTHTGEYPYKCTLCGENF [K13Y]  2.74
66. HLTRHQRTHTGMKPYKCTLCGENF [E12M]  2.71
67. HLTRHQRTHTGDKPYKCTLCGENF [E12D]  2.68
68. HLTRHQRTHTGEKPYKCRLCGENF [T18R]  2.68
69. HLTRHQRTHTGEKPYKCTLHGENF [C20H]  2.66
70. HLTRHQPTHTGEKPYKCTLCGENF [R7P]  2.63
71. HLTRHQRTHTGEKPYKCTFCGENF [L19F]  2.62
72. HLTRHQRTHTGEKPYKCTGCGENF [L19G]  2.56
73. HLTRDQRTHTGEKPYKCTLCGENF [H5D]  2.56
74. HLTRHQRTHTGRKPYKCTLCGENF [E12R]  2.55
75. HLTRHQRTHTGEKPYKCTLPGENF [C20P]  2.53
76. HLTWHQRTHTGEKPYKCTLCGENF [R4W]  2.5
77. HLTRHQRTHTGEWPYKCTLCGENF [K13W]  2.5
78. HLTRHQRTHTGFKPYKCTLCGENF [E12F]  2.47
79. HLTRFQRTHTGEKPYKCTLCGENF [H5F]  2.47
80. VLTRHQRTHTGEKPYKCTLCGENF [H1V]  2.46
81. HLTRHQRTHTGEKPYKCMLCGENF [T18M]  2.42
82. HLTRHQRTHTGEKPYKCVLCGENF [T18V]  2.42
83. HLTRHQITHTGEKPYKCTLCGENF [R7I]  2.4
84. HLTRMQRTHTGEKPYKCTLCGENF [H5M]  2.28
85. HLTRHQRTHTGEKPYKCTLFGENF [C20F]  2.25
86. HLTRTQRTHTGEKPYKCTLCGENF [H5T]  2.24
87. HLTRHQRTHTGGKPYKCTLCGENF [E12G]  2.23
88. YLTRHQRTHTGEKPYKCTLCGENF [H1Y]  2.23
89. GLTRHQRTHTGEKPYKCTLCGENF [H1G]  2.19
90. ILTRHQRTHTGEKPYKCTLCGENF [H1I]  2.19
91. HLTRLQRTHTGEKPYKCTLCGENF [H5L]  2.09
92. HLTRHQRTHTGELPYKCTLCGENF [K13L]  2.03
93. HLTRHQRTHTGWKPYKCTLCGENF [E12W]  1.87
94. FLTRHQRTHTGEKPYKCTLCGENF [H1F]  1.36
